{
  "source": "paper PMC8939767",
  "about": "(2022)",
  "binders": {"B1": {"name": "CC40.8 broadly neutralizing antibody (IgG) (antibody, V domains shown)", "VH": "EVQLLESGGGLVQPGGSLRLSCAASGFTFSSYVMTWARQAPGKGLEWVSAISGTGYTYYADSVKGRFTVSRDNSKNTLFLQMSSLRAEDTAVYYCAITMAPVVWGQGTTVTVSS", "VL": "SYELTQPPSVSVSPGQTARITCSGDALPKRYAYWYQQKSGQAPILVIYEDKKRPSGIPERLSGSKSGTVATLTISGAQVEDEADYYCYSTDSSGNHAVFGGGTQLTVL"}},
  "test_in_all_cases": "BLI",
  "key": {"[1]": {"target": "T1, HCoV-HKU1 soluble spike ectodomain protein (HCoV-HKU1, UniProt Q5MQD0 13-1300)", "T1 chain": "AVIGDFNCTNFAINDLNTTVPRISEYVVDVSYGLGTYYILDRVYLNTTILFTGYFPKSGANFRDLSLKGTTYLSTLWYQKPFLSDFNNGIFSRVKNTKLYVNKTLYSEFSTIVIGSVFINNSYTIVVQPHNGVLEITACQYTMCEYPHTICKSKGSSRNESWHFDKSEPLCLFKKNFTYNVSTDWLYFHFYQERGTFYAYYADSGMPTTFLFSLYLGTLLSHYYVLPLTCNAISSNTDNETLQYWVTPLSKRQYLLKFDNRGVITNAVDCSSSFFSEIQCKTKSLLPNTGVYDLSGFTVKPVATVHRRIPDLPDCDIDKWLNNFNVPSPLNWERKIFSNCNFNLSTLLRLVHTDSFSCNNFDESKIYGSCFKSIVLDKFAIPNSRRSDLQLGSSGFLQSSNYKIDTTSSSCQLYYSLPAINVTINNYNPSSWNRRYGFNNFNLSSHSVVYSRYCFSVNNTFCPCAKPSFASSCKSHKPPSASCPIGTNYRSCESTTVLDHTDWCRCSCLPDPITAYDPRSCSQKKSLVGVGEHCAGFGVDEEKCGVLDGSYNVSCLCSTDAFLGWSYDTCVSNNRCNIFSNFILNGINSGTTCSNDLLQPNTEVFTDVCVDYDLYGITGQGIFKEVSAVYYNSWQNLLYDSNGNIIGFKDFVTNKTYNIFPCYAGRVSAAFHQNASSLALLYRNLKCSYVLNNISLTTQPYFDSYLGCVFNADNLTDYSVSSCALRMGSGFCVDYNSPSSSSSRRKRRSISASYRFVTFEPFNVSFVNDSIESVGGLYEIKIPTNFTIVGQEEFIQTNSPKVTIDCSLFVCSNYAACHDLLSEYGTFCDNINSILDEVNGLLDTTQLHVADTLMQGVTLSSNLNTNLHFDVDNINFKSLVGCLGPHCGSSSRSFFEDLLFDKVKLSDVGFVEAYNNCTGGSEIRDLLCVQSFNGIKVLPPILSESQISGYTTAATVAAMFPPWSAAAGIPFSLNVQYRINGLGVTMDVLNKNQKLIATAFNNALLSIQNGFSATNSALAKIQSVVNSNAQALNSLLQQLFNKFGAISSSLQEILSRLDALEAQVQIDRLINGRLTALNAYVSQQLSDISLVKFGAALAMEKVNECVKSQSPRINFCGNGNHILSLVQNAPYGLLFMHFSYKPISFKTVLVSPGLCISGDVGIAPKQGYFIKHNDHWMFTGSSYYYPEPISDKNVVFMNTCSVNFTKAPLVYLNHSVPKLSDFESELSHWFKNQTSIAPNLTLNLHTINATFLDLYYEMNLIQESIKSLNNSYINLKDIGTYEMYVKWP"}, "[2]": {"target": "SARS-CoV-1 soluble spike protein"}, "[3]": {"target": "HCoV-OC43 soluble spike protein"}, "[4]": {"target": "SARS-CoV-2 soluble spike protein"}},
  "data": [
    {"binder": "B1", "values": [
      {"measurement": "Kd", "setting": "[1]", "value": "< 1", "unit": "pM"},
      {"measurement": "Kd", "setting": "[2]", "value": "< 1", "unit": "pM"},
      {"measurement": "Kd", "setting": "[3]", "value": "~10", "unit": "nM"},
      {"measurement": "Kd", "setting": "[4]", "value": "< 1", "unit": "pM"}
    ]}
  ]
}
